In paper doi:10.1101/2021.06.30.450611:

Target: Taxol-stabilised microtubules assembled from pig tubulin (single molecule motility assay) (pig)
Experiment: single molecule TIRF motility assay

dwell time | Binder
36.3 s | full-length recombinant human KIF1C-GFP (wildtype) (natural protein) MAGASVKVAVRVRPFNARETSQDAKCVVSMQGNTTSIINPKQSKDAPKSFTFDYSYWSHTSTEDPQFASQQQVYRDIGEEMLLHAFEGYNVCIFAYGQTGAGKSYTMMGRQEPGQQGIVPQLCEDLFSRVSENQSAQLSYSVEVSYMEIYCERVRDLLNPKSRGSLRVREHPILGPYVQDLSKLAVTSYADIADLMDCGNKARTVAATNMNETSSRSHAVFTIVFTQRCHDQLTGLDSEKVSKISLVDLAGSERADSSGARGMRLKEGANINKSLTTLGKVISALADMQSKKRKSDFIPYRDSVLTWLLKENLGGNSRTAMIAALSPADINYEETLSTLRYADRTKQIRCNAIINEDPNARLIRELQEEVARLRELLMAQGLSASALEGLKTEEGSVRGALPAVSSPPAPVSPSSPTTHNGELEPSFSPNTESQIGPEEAMERLQETEKIIAELNETWEEKLRKTEALRMEREALLAEMGVAVREDGGTVGVFSPKKTPHLVNLNEDPLMSECLLYHIKDGVTRVGQVDMDIKLTGQFIREQHCLFRSIPQPDGEVVVTLEPCEGAETYVNGKLVTEPLVLKSGNRIVMGKNHVFRFNHPEQARLERERGVPPPPGPPSEPVDWNFAQKELLEQQGIDIKLEMEKRLQDLENQYRKEKEEADLLLEQQRLYADSDSGDDSDKRSCEESWRLISSLREQLPPTTVQTIVKRCGLPSSGKRRAPRRVYQIPQRRRLQGKDPRWATMADLKMQAVKEICYEVALADFRHGRAEIEALAALKMRELCRTYGKPDGPGDAWRAVARDVWDTVGEEEGGGAGSGGGSEEGARGAEVEDLRAHIDKLTGILQEVKLQNSSKDRELQALRDRMLRMERVIPLAQDHEDENEEGGEVPWAPPEGSEAAEEAAPSDRMPSARPPSPPLSSWERVSRLMEEDPAFRRGRLRWLKQEQLRLQGLQGSGGRGGGLRRPPARFVPPHDCKLRFPFKSNPQHRESWPGMGSGEAPTPLQPPEEVTPHPATPARRPPSPRRSHHPRRNSLDGGGRSRGAGSAQPEPQHFQPKKHNSYPQPPQPYPAQRPPGPRYPPYTTPPRMRRQRSAPDLKESGAAV
25.8 s | full-length recombinant human KIF1C(P176L)-GFP (natural protein) MAGASVKVAVRVRPFNARETSQDAKCVVSMQGNTTSIINPKQSKDAPKSFTFDYSYWSHTSTEDPQFASQQQVYRDIGEEMLLHAFEGYNVCIFAYGQTGAGKSYTMMGRQEPGQQGIVPQLCEDLFSRVSENQSAQLSYSVEVSYMEIYCERVRDLLNPKSRGSLRVREHPILGLYVQDLSKLAVTSYADIADLMDCGNKARTVAATNMNETSSRSHAVFTIVFTQRCHDQLTGLDSEKVSKISLVDLAGSERADSSGARGMRLKEGANINKSLTTLGKVISALADMQSKKRKSDFIPYRDSVLTWLLKENLGGNSRTAMIAALSPADINYEETLSTLRYADRTKQIRCNAIINEDPNARLIRELQEEVARLRELLMAQGLSASALEGLKTEEGSVRGALPAVSSPPAPVSPSSPTTHNGELEPSFSPNTESQIGPEEAMERLQETEKIIAELNETWEEKLRKTEALRMEREALLAEMGVAVREDGGTVGVFSPKKTPHLVNLNEDPLMSECLLYHIKDGVTRVGQVDMDIKLTGQFIREQHCLFRSIPQPDGEVVVTLEPCEGAETYVNGKLVTEPLVLKSGNRIVMGKNHVFRFNHPEQARLERERGVPPPPGPPSEPVDWNFAQKELLEQQGIDIKLEMEKRLQDLENQYRKEKEEADLLLEQQRLYADSDSGDDSDKRSCEESWRLISSLREQLPPTTVQTIVKRCGLPSSGKRRAPRRVYQIPQRRRLQGKDPRWATMADLKMQAVKEICYEVALADFRHGRAEIEALAALKMRELCRTYGKPDGPGDAWRAVARDVWDTVGEEEGGGAGSGGGSEEGARGAEVEDLRAHIDKLTGILQEVKLQNSSKDRELQALRDRMLRMERVIPLAQDHEDENEEGGEVPWAPPEGSEAAEEAAPSDRMPSARPPSPPLSSWERVSRLMEEDPAFRRGRLRWLKQEQLRLQGLQGSGGRGGGLRRPPARFVPPHDCKLRFPFKSNPQHRESWPGMGSGEAPTPLQPPEEVTPHPATPARRPPSPRRSHHPRRNSLDGGGRSRGAGSAQPEPQHFQPKKHNSYPQPPQPYPAQRPPGPRYPPYTTPPRMRRQRSAPDLKESGAAV
16 s | full-length recombinant human KIF1C(R169W)-GFP (natural protein) MAGASVKVAVRVRPFNARETSQDAKCVVSMQGNTTSIINPKQSKDAPKSFTFDYSYWSHTSTEDPQFASQQQVYRDIGEEMLLHAFEGYNVCIFAYGQTGAGKSYTMMGRQEPGQQGIVPQLCEDLFSRVSENQSAQLSYSVEVSYMEIYCERVRDLLNPKSRGSLRVWEHPILGPYVQDLSKLAVTSYADIADLMDCGNKARTVAATNMNETSSRSHAVFTIVFTQRCHDQLTGLDSEKVSKISLVDLAGSERADSSGARGMRLKEGANINKSLTTLGKVISALADMQSKKRKSDFIPYRDSVLTWLLKENLGGNSRTAMIAALSPADINYEETLSTLRYADRTKQIRCNAIINEDPNARLIRELQEEVARLRELLMAQGLSASALEGLKTEEGSVRGALPAVSSPPAPVSPSSPTTHNGELEPSFSPNTESQIGPEEAMERLQETEKIIAELNETWEEKLRKTEALRMEREALLAEMGVAVREDGGTVGVFSPKKTPHLVNLNEDPLMSECLLYHIKDGVTRVGQVDMDIKLTGQFIREQHCLFRSIPQPDGEVVVTLEPCEGAETYVNGKLVTEPLVLKSGNRIVMGKNHVFRFNHPEQARLERERGVPPPPGPPSEPVDWNFAQKELLEQQGIDIKLEMEKRLQDLENQYRKEKEEADLLLEQQRLYADSDSGDDSDKRSCEESWRLISSLREQLPPTTVQTIVKRCGLPSSGKRRAPRRVYQIPQRRRLQGKDPRWATMADLKMQAVKEICYEVALADFRHGRAEIEALAALKMRELCRTYGKPDGPGDAWRAVARDVWDTVGEEEGGGAGSGGGSEEGARGAEVEDLRAHIDKLTGILQEVKLQNSSKDRELQALRDRMLRMERVIPLAQDHEDENEEGGEVPWAPPEGSEAAEEAAPSDRMPSARPPSPPLSSWERVSRLMEEDPAFRRGRLRWLKQEQLRLQGLQGSGGRGGGLRRPPARFVPPHDCKLRFPFKSNPQHRESWPGMGSGEAPTPLQPPEEVTPHPATPARRPPSPRRSHHPRRNSLDGGGRSRGAGSAQPEPQHFQPKKHNSYPQPPQPYPAQRPPGPRYPPYTTPPRMRRQRSAPDLKESGAAV
